Values belong to the molecule of their own block, whether it stands above or below them.
What was measured:
HK = target: T1, HK (Homo sapiens, UniProt P01042); test: solid phase ELISA, gC1q-R peptides supporting HK binding
T1 sequence (P01042 19-644): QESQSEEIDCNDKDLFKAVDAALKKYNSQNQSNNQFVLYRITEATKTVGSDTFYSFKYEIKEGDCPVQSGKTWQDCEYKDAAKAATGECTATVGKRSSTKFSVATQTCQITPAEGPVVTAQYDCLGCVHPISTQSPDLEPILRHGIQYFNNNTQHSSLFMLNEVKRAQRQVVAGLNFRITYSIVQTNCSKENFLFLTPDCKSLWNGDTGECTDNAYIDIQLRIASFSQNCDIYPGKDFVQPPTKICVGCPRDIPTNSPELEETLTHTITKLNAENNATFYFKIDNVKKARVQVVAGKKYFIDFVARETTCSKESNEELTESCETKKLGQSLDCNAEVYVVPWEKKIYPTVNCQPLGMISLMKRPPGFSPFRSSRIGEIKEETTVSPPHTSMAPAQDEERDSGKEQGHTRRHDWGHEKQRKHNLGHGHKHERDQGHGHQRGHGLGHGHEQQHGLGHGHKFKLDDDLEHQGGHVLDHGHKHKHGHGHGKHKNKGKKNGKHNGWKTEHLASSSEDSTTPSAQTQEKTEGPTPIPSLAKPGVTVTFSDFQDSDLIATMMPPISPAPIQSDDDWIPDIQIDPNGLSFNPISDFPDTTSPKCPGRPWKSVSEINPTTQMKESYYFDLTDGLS
From the text: By peptide mapping and antibody inhibition studies, we have previously identified a binding site for HK in a gC1q-R domain contained within residues 204-218. […] Thus a possible binding site(s) elsewhere in the molecule was sought. Several peptides were synthesized that correspond with the gC1q-R domains of very high negative charge and, which based on their location in the crystal structure on the solution-face, are hypothesized to interact with solution-phase ligands. […] HK was bound to wells coated with peptide 190-202 and was detected by a monoclonal antibody to HK. […] These antibodies have now been isotyped to be IgG1k.

recombinant gC1q-R = target: T2, recombinant gC1q-R (Homo sapiens, UniProt Q07021); test: competitive binding ELISA, biotinylated gC1q-R to coated HK peptide
T2 construct: made in house
T2 sequence (Q07021 74-282): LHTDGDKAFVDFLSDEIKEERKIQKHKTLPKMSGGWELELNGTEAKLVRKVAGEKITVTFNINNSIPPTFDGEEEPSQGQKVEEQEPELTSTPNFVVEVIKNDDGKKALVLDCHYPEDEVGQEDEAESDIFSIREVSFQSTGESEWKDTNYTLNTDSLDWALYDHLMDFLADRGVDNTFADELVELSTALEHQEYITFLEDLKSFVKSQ
Experimental: FIG. 5. Panel A: Solution phase HKH20 inhibits binding of gC1q-R to microtiter bound HKH. ELISA wells were first coated with 50 μg/ml peptide HKH20 (SEQ ID NO:11). The wells were then incubated either with biotinylated gC1q-R (5 μg/ml) alone (lane 2) or in the presence of 10 μg/ml (lane 3) or 50 μg/ml (lane 4) HKH20. […] was coated with biotinylated gC1q-R (1 μg/ml) and detected with alkaline-phosphatase conjugated NeutrAvidin. The figure is a representative of two experiments done in duplicate. […] Panel B: HKH20 and histidine-rich fragments bind to gC1q-R. Binding of gC1q-R to HKH-20 (SEQ ID NO:11), HKH-10-1 (residues 479-488; SEQ ID NO:13), HKH-10-2 (residues 484-493; SEQ ID NO:14), and HKH-10-3 (residues 489-498; SEQ ID NO:15). The negative control is binding to BSA.
As discussed earlier, gC1q-R binds HK through a site on domain 5 that is located on the light chain of HK. […] This experiment was performed by competitive binding studies in which ELISA plate wells coated with 100 μg/ml HK peptide were incubated with biotinylated gC1q-R (1 μg/ml) in the presence or absence of increasing concentrations of peptide as a solution phase competitor. […] (FIG. 5B)

endothelial cells = conditions: cited from earlier work
HUVECs = conditions: zinc-dependent; read-out: Kd of binding to HUVECs; cited from earlier work

capture of HK from diluted plasma on peptide-coated wells (HK; plasma 1:10 in TBS, detected by monoclonal antibody to HK): HK was bound
ability to support HK binding (HK; solid phase ELISA): strongly supported binding of HK
Molecule: EDEVGQEDEAESD (listed as Homo sapiens) [peptide 190-202, gC1q-R 190-202]

inhibition of gC1q-R binding to coated HK peptide by solution phase peptide (recombinant gC1q-R; 50 μg/ml HKH20): totally inhibited
binding of gC1q-R to the peptide (recombinant gC1q-R; ELISA wells coated with peptide): bound strongly
Molecule: HKHGHGHGKHKNKGKKNGKH (listed as Homo sapiens) [HKH20, HK 479-498, domain 5]
inhibition of the interaction of HK with intact endothelial cells (endothelial cells): inhibit

B1: HK: high molecular weight kininogen, 115 kDa non-enzymatic plasma glycoprotein (protein, UniProt P01042 19-644, looked up)
Kininogen-1: T1 sequence (P01042 19-644)
Kd (HUVECs): 40 to 50 nM

From US8883153B2, “Methods for preventing and treating angioedema” (The Research for The State University of New York, priority 2009, dated 2014)
